These results are taken from PMC6743029.

This data set in a line: Western blot, Huh7.5.1 lysates, 16 h. The settings on record: glycan lost; control: untreated. On the technique in general: Immunoblotting shows a protein as a band on a membrane.

B1: SR-BI (scavenger receptor class B, type I): tunicamycin (protein)
parent chain: MGCSAKARWAAGALGVAGLLCAVLGAVMIVMVPSLIKQQVLKNVRIDPSSLSFNMWKEIPIPFYLSVYFFDVMNPSEILKGEKPQVRERGPYVYREFRHKSNITFNNNDTVSFLEYRTFQFQPSKSHGSESDYIVMPNILVLGAAVMMENKPMTLKLIMTLAFTTLGERAFMNRTVGEIMWGYKDPLVNLINKYFPGMFPFKDKFGLFAELNNSDSGLFTVFTGVQNISRIHLVDKWNGLSKVDFWHSDQCNMINGTSGQMWPPFMTPESSLEFYSPEACRSMKLMYKESGVFEGIPTYRFVAPKTLFANGSIYPPNEGFCPCLESGIQNVSTCRFSAPLFLSHPHFLNADPVLAEAVTGLHPNQEAHSLFLDIHPVTGIPMNCSVKLQLSLYMKSVAGIGQTGKIEPVVLPLLWFAESGAMEGETLHTFYTQLVLMPKVMHYAQYVLLALGCVLLLVPVICQIRSQVGAGQRAARADSHSLACWGKGASDRTLWPTAAWSPPPAAVLRLCRSGSGHCWGLRSTLASFACRVATTLPVLEGLGPSLGGGTGS
As for B1, the expression_or_secretion result was “decreases”.
